Measurements: US20250353921A1
Several values for one entry are separate records, joined by “and”; a condition that tells them apart may be missing. Identical values can stand only once. Each block holds one substance with its values, some of them ahead of it.

Assays:
[1] = target: Human OX40 (Acro Biosystems, catalog NO: OXO-H5224) protein (human) (UniProt P43489); experiment: SPR Biacore 8K+, single cycle kinetics, antibody captured by anti-human Fc, OX40 analyte, pH 7.4, 25 °C
[2] = target: human OX40 (TNFRSF4, CD134) on cells (human) (UniProt P43489); experiment: cell-based or functional assay
human OX40 (TNFRSF4, CD134) on cells (human), sequence (P43489 29-277 limits assumed): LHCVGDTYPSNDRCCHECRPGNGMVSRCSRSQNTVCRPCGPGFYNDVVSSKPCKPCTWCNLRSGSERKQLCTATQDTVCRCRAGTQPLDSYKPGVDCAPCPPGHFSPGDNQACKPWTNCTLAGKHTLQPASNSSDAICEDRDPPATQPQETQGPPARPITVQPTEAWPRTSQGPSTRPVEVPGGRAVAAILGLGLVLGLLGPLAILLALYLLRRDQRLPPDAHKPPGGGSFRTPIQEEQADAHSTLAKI

[3] = target: human OX40 (TNFRSF4, CD134) on cells (human) (UniProt P43489); experiment: flow cytometry on Jurkat-NFκB (OX40) cells, detection with anti-human IgG Fc-AF647

Human OX40 (Acro Biosystems, catalog NO: OXO-H5224) protein (human), sequence (P43489 29-216 limits assumed): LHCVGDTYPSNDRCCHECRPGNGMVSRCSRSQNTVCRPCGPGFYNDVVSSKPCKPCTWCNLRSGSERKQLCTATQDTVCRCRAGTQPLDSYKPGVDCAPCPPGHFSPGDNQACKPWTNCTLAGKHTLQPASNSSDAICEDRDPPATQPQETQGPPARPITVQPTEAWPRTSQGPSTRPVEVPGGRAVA

Kd [1]: 3 nM
ADCC EC50, activated T cells [2]: 0.008 nM
ADCC EC50, in vitro differentiated Tregs [2]: 0.005 nM
ADCC EC50, regulatory T cells (LDH release) [2]: 0.05 nM
EC50, inhibition of IL-2 release [2]: 5.87 nM
EC50, inhibition of IL-4 release [2]: 1.77 nM
EC50, inhibition of IL-5 release [2]: 18.6 nM
EC50, inhibition of IL-8 release [2]: 4.05 nM
EC50, inhibition of IL-10 release [2]: 20.3 nM
EC50, inhibition of IL-13 release [2]: 4 nM
EC50, inhibition of IL-17a release [2]: 11.7 nM
EC50, inhibition of IL-21 release [2]: 2.75 nM
EC50, inhibition of IL-22 release [2]: 10.4 nM
EC50, inhibition of IL-31 release [2]: 1.84 nM
EC50, inhibition of T cell proliferation [2]: 0.15 nM and 0.019 µg/ml
EC50, inhibition of TNF-α release [2]: 3.9 nM
responders (Resp) of donors tested, coated T cell agonism assay (responders of 9 donors) [2]: 7
Substance: AMG451 (rocatinlimab) (antibody)
Maximum killing (%), ADCC, activated T cells [2]: 60.3%
Maximum killing (%), ADCC, regulatory T cells [2]: 85.8%

average proliferation index (Av), coated T cell agonism assay [2]: 1.16
responders (Resp) of donors tested, coated T cell agonism assay (responders of 15 donors) [2]: 0
Substance: IgG1 control (antibody)
Maximum killing (%), ADCC, activated T cells [2]: 2.27%
Maximum killing (%), ADCC, regulatory T cells [2]: -0.83%

average proliferation index (Av), coated T cell agonism assay [2]: 3.41
luminescence, Jurkat-NFκB-OX40 agonism assay [2]: > 2 fold
responders (Resp) of donors tested, coated T cell agonism assay (responders of 11 donors) [2]: 9
EC50 (read off the curve) [3]: 0.1 µg/mL
Substance: MEDI0562 (humanized 9B12, tavolixizumab) (antibody)

luminescence, Jurkat-NFκB-OX40 agonism assay [2]: 3 fold
Substance: IMG-007 (antibody)
